Data from the supplement of paper PMC7877785.
± gives the uncertainty stated by the source.

Assay: self-splicing fitness, log relative to wild type (ln ratio); higher = more splicing; Tetrahymena group I intron in knt gene, E. coli kanamycin selection, DiMSum; sequences stand for … in CUCUCU…GGAGGGAAAAGUUAUCAGGCAUGCACCUGGUAGCUAGUCUUUAAACCAAUAGAUUGCAUCGGUUUAAAAGGCAAGACCGUCAAAUUGCGGGAAAGGGGUCAACAGCCGUUCAGUACCAAGUCUCAGGGGAAACUUUGAGAUGGCCUUGCAAAGGGUAUGGUAAUAAGCUGACGGACAUGGUCCUAACCACGCAGCCAAGUCCUAAGUCAACAGAUCUUCUGUUGAUAUGGAUGCAGUUCACAGACUAAAUGUCGGUCGGGGAAGAUGUAUUCUUCUCAUAAGAUAUAGUCGGACCUCUCCUUAAUGGGAGCUAGCGGAUGAAGUGAUGCAACACUGGAGCCGCUGGGAACUAAUUUGUAUGCGAAAGUAUAUUGAUUAGUUUUGGAGUACUCGUGGUCG
How it was run: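 Colonies from six replicate transformations of E. coli BL21(DE3) were pooled and amplicon-sequenced on an Illumina HiSeq 2500. The library placed an intron with all eight P1ex-region nucleotides randomised inside the knt kanamycin-resistance gene on pET-22b(+), and cells grew overnight at 37°C or 30°C on LB agar with or without 25 μg/mL kanamycin (plus 100 μg/mL carbenicillin, 50 μM IPTG, 0.2% rhamnose). Fitness is the DiMSum error-weighted combination of wild-type-normalised replicate fold changes, kanamycin versus none.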

Sequence	self-splicing fitness (ln) (30 °C)	self-splicing fitness (ln) (37 °C)
UGGCAGCAAUAUUACGUCUC	-1.64 ± 0.11	-0.21 ± 0.13
UGGCAGCAAUAUUACGUUGC	-3.77 ± 0.19	-2.37 ± 0.13
UGGGAGCAAUAUUACGAGUG	-2.24 ± 0.31	-0.927 ± 0.28
UGGGAGCAAUAUUACGCAUC	-3 ± 0.32	-2.58 ± 0.38
UGGGAGCAAUAUUACGCGGA		-2.73 ± 0.34
UGGGAGCAAUAUUACGCUAG	-2.79 ± 0.32	-1.99 ± 0.36
UGGGAGCAAUAUUACGGCAU		-2.47 ± 0.45
UGGGAGCAAUAUUACGUAAG	-0.459 ± 0.15	-1.12 ± 0.2
UGGGAGCAAUAUUACGUACU		-2.02 ± 0.33
UGGGAGCAAUAUUACGUCUA	-1.22 ± 0.12	-0.187 ± 0.16
UGGGAGCAAUAUUACGUCUC	-3.13 ± 0.32	-2.93 ± 0.44
UGGGAGCAAUAUUACGUGUG	-1.75 ± 0.22	-2.26 ± 0.33
UGGGAGCAAUAUUACGUUUG	-3.75 ± 0.27	-2.14 ± 0.27
UGGUAGCAAUAUUACGACGC		1.38 ± 0.5
UGGUAGCAAUAUUACGCAGA	-2.45 ± 0.16	-0.684 ± 0.1
UGGUAGCAAUAUUACGCAUA	-1.11 ± 0.22	-0.547 ± 0.17
UGGUAGCAAUAUUACGCCAA	-1.77 ± 0.15	-0.723 ± 0.12
UGGUAGCAAUAUUACGCUAU	-4.7 ± 0.42	-2.87 ± 0.23
UGGUAGCAAUAUUACGGAAU		-0.962 ± 0.23
UGGUAGCAAUAUUACGGCAG	-1.15 ± 0.13	0.129 ± 0.17
UGGUAGCAAUAUUACGGCUG	-1.99 ± 0.15	-0.886 ± 0.26
UGGUAGCAAUAUUACGGGCA	-0.0931 ± 0.13	0.591 ± 0.13

Sequence	self-splicing fitness (ln) (30 °C)	self-splicing fitness (ln) (37 °C)
UGGUAGCAAUAUUACGGGCC	-1.4 ± 0.23	
UGGUAGCAAUAUUACGGGGA	-2.58 ± 0.26	-2.18 ± 0.18
UGGUAGCAAUAUUACGGGUC	-3.15 ± 0.4	-2.9 ± 0.47
UGGUAGCAAUAUUACGGUAA	-1.34 ± 0.18	-0.209 ± 0.12
UGGUAGCAAUAUUACGGUCA	-0.695 ± 0.097	-0.176 ± 0.1
UGGUAGCAAUAUUACGGUGU	-4.11 ± 0.31	-0.563 ± 0.13
UGGUAGCAAUAUUACGUAUA	-1.51 ± 0.14	-0.00881 ± 0.14
UGGUAGCAAUAUUACGUCAC		-1.37 ± 0.45
UGGUAGCAAUAUUACGUCUG	-0.683 ± 0.11	0.409 ± 0.17
UGGUAGCAAUAUUACGUUCC	-2.33 ± 0.23	-1.19 ± 0.36
UGGUAGCAAUAUUACGUUGG	-1.4 ± 0.12	-1.7 ± 0.14
UGUAAGCAAUAUUACGAGAU	-3.71 ± 0.3	-3.14 ± 0.37
UGUAAGCAAUAUUACGAUAG	-1.44 ± 0.25	-1.87 ± 0.29
UGUAAGCAAUAUUACGAUGA	-0.986 ± 0.098	-0.393 ± 0.13
UGUAAGCAAUAUUACGCAGC	-3.28 ± 0.35	-1.44 ± 0.19
UGUAAGCAAUAUUACGCAUC	-3.16 ± 0.31	-1.74 ± 0.23
UGUAAGCAAUAUUACGCCGU	-2.48 ± 0.26	-3.08 ± 0.47
UGUAAGCAAUAUUACGCGGA	-1.91 ± 0.26	-1.29 ± 0.2
UGUAAGCAAUAUUACGGCAC	-1.49 ± 0.24	-1.48 ± 0.42
UGUAAGCAAUAUUACGGCCA	-0.0492 ± 0.076	-0.0953 ± 0.12
UGUAAGCAAUAUUACGGCUU	-1.01 ± 0.12	-1.15 ± 0.15
UGUAAGCAAUAUUACGGGCA	-0.98 ± 0.09	0.521 ± 0.1
